The target of data set [1] is T1, ABI5 (His-ABI5) (Arabidopsis thaliana) (UniProt Q9SJN0).
T1 sequence: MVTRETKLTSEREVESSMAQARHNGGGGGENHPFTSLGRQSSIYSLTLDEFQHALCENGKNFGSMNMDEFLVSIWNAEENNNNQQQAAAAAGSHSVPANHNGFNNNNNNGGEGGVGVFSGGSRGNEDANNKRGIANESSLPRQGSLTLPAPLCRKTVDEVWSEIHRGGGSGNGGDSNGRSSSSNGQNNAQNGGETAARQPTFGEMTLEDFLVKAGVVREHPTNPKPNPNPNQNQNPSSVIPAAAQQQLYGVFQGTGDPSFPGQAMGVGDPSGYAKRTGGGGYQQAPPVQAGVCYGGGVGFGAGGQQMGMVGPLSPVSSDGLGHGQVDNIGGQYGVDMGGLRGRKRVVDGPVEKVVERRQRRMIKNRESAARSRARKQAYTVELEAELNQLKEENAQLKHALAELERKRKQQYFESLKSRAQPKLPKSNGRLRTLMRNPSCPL
Put plainly: EMSA.

A further data set concerns the target T2, His-AtABI5 (Arabidopsis thaliana, UniProt Q9SJN0 1-442).
T2 sequence (looked up): T1 sequence
Put plainly: pull-down.

Consider “AGTGTTATATAATTTTACGTAACGTAAAACAATACAAAATTTTAATTCCTGAACGAATAAAACGAGTATATTAATTAATTTATTGATCGTATTAAAACGAATATGATCCAATTAAGATTACAATTACTAAAATCCCCACACTATTATTGTCATTATTTAACTATGGCAGATAGATAGATACAGAACCGTAAAGGACGTTAGGAAGAGGAAGAACGTTGACGAAGTCAAC (double strand) [AtMPK3 promoter fragment (-402 to -256)]”, for which the binding entry in data set [1] is “binds”.

B1: GST-AtMPK3 (enzyme, Arabidopsis thaliana, UniProt Q39023 1-370, looked up)
chain: MNTGGGQYTDFPAVETHGGQFISYDIFGSLFEITSKYRPPIIPIGRGAYGIVCSVLDTETNELVAMKKIANAFDNHMDAKRTLREIKLLRHLDHENIIAIRDVVPPPLRRQFSDVYISTELMDTDLHQIIRSNQSLSEEHCQYFLYQLLRGLKYIHSANIIHRDLKPSNLLLNANCDLKICDFGLARPTSENDFMTEYVVTRWYRAPELLLNSSDYTAAIDVWSVGCIFMELMNRKPLFPGKDHVHQMRLLTELLGTPTESDLGFTHNEDAKRYIRQLPNFPRQPLAKLFSHVNPMAIDLVDRMLTFDPNRRITVEQALNHQYLAKLHDPNDEPICQKPFSFEFEQQPLDEEQIKEMIYQEAIALNPTYG
B1: in the data set with His-AtABI5, the binding result is “binds”.

The values are drawn from doi:10.1101/2021.02.02.429361 (bioRxiv, 2021).
